1 protein from publication PMC11840923, “Kinetic and Thermodynamic Characterization of Human 4-Oxo-L-proline Reductase Catalysis” (Biochemistry, 2025) can be followed below.

The term Km denotes the substrate concentration at which the rate is half of its maximum.

Substrate in the data set: O=C1CN[C@H](C(=O)O)C1
As to the kind of experiment: purified protein. It is filed as biochemical, Homo sapiens. The note with it: NADH binds the HsBDH2:NADH complex; receives the pro-S hydrogen from NADH.

B1: 4-oxo-L-proline reductase (HsBDH2) (Homo sapiens) (protein)
chain: MGRLDGKVIILTAAAQGIGQAAALAFAREGAKVIATDINESKLQELEKYPGIQTRVLDVTKKKQIDQFANEVERLDVLFNVAGFVHHGTVLDCEEKDWDFSMNLNVRSMYLMIKAFLPKMLAQKSGNIINMSSVASSVKGVVNRCVYSTTKAAVIGLTKSVAADFIQQGIRCNCVCPGTVDTPSLQERIQARGNPEEARNDFLKRQKTGRFATAEEIAMLCVYLASDESAYVTGNPVIIDGGWSL
Turning to B1, the Km turned out to be 176 µM.
